Measurements taken from patent US20250027068A1.

molecular target: pooled human IgG (human); experiment: cell-based or functional assay

Binder	Enzyme Activity Endpoint Assay: Fab′2	Enzyme Activity Endpoint Assay: Fc	Enzyme Activity Endpoint Assay: IgG	Enzyme Activity Endpoint Assay: scIgG
VRT-1 (Fc fusion) VTSVWTKGVTPPANFTQGEDVFHAPYVANQGWYDITKTFNGKDDLLCGAATAGNMLHWWFDQNKDQIKRYLEEHPEKQKINFNGEQMFDVKEAIDTKNHQLDSKLFEYFKEKAFPYLSTKHLGVFPDHVIDMFINGYRLSLTNHGPTPVKEGSKDPRGGIFDAVFTRGDQSKLLTSRHDFKEKNLKEISDLIKKELTEGKALGLSHTYANVRINHVINLWGADFDSNGNLKAIYVTDSDSNASIGMKKYFVGVNSAGKVAISAKEIKEDNIGAQVLGLFTLSTGQDSWNQTNDKTHTCPPCPAPEAAGAPSVFLFPPKPKDTLMISRTPEVTCVVVDVSHEDPEVKFNWYVDGVEVHNAKTKPREEQQNSTYRVVSVLTVLHQDWLNGKEYKCKVSNKALKAPIEKTISKAKGQPREPQVYTLPPSRDELTKNQVSLTCLVKGFYPSDIAVEWESNGQPENNYKTTPPVLDSDGSFFLYSKLTVDKSRWQQGNVFSCSVMHEALHNHYTQKSLSLSPG	175 ng/µL	334 ng/µL	197 ng/µL	137 ng/µL
VRT-2 (Fc fusion) VTSVWTKGVTPPAKFTQGEDVFHAPYVANQGWYDITKTFNGKDDLLCGAATAGNMLHWWFDQNKEKIEAYLKKHPDKQKIMFGDQELLDVRKVINTKGDQTNSELFNYFRDKAFPGLSARRIGVMPDLVLDMFINGYYLNVYKTQTTDVNRTYQEKDRRGGIFDAVFTRGDQSKLLTSRHDFKEKNLKEISDLIKKELTEGKALGLSHTYANVRINHVINLWGADFDSNGNLKAIYVTDSDSNASIGMKKYFVGVNSAGKVAISAKEIKEDNIGAQVLGLFTLSTGQDSWNQTNDKTHTCPPCPAPEAAGAPSVFLFPPKPKDTLMISRTPEVTCVVVDVSHEDPEVKFNWYVDGVEVHNAKTKPREEQQNSTYRVVSVLTVLHQDWLNGKEYKCKVSNKALKAPIEKTISKAKGQPREPQVYTLPPSRDELTKNQVSLTCLVKGFYPSDIAVEWESNGQPENNYKTTPPVLDSDGSFFLYSKLTVDKSRWQQGNVFSCSVMHEALHNHYTQKSLSLSPG	97 ng/µL	238 ng/µL	247 ng/µL	100 ng/µL
VRT-3 (Fc fusion) QITSVWTKGVTPLTPEQFRYNNEDVIHAPYLAHQGWYDITKAFDGKDNLLCGAATAGNMLHWWFDQNKTEIEAYLSKHPEKQKIIFNNQELFDLKAAIDTKDSQTNSQLFNYFRDKAFPNLSARQLGVMPDLVLDMFINGYYLNVFKTQSTDVNRPYQDKDKRGGIFDAVFTRGDQTTLLTARHDLKNKGLNDISTIIKQELTEGRALALSHTYANVSISHVINLWGADFNAEGNLEAIYVTDSDANASIGMKKYFVGINAHGHVAISAKKIEGENIGAQVLGLFTLSSGKDIWQKLSDKTHTCPPCPAPEAAGAPSVFLFPPKPKDTLMISRTPEVTCVVVDVSHEDPEVKFNWYVDGVEVHNAKTKPREEQQNSTYRVVSVLTVLHQDWLNGKEYKCKVSNKALKAPIEKTISKAKGQPREPQVYTLPPSRDELTKNQVSLTCLVKGFYPSDIAVEWESNGQPENNYKTTPPVLDSDGSFFLYSKLTVDKSRWQQGNVFSCSVMHEALHNHYTQKSLSLSPG	0 ng/µL	99 ng/µL	808 ng/µL	50 ng/µL
VRT-4 (Fc fusion) SQTEDSESLQRLRDIEDFQAEKKMQNVVYTKWLDGVDVKDHDFRKIVDGNIAYYATPLLNGRGFYDINKDFNRDSDKCAAAVAANMFHYWLDINRDNVDRFLRQNPEKHGIIELPDGQLKLSDFLNTYESDHGYRDKSKLFDFISNNFNGPVWTDKLLDNYINGYAYNYKYGRTIEDPTKNTSKINFFKEVFNEKILTNNHSIRNQNEFSVLLSEALYTGKAIGLSYGPAGLRHSLGHIISVWGADLDADGNVVAIYVTDSDDKKLTIGDERVGLKRYKISTDDENRLRLTAYEETHNTGGQIRGLWTLDTGKYAWADYFDKTEQTGTDQAEQDKTHTCPPCPAPEAAGAPSVFLFPPKPKDTLMISRTPEVTCVVVDVSHEDPEVKFNWYVDGVEVHNAKTKPREEQQNSTYRVVSVLTVLHQDWLNGKEYKCKVSNKALKAPIEKTISKAKGQPREPQVYTLPPSRDELTKNQVSLTCLVKGFYPSDIAVEWESNGQPENNYKTTPPVLDSDGSFFLYSKLTVDKSRWQQGNVFSCSVMHEALHNHYTQKSLSLSPG	0 ng/µL	29 ng/µL	990 ng/µL	24 ng/µL
VRT-5 (Fc fusion) VTSVWTKGVTPPANFTQGEDVFHAPYKANQGWYDITKTFNGKDDLLCGAATAGNMLHWWFDQNKDQIEAYLKEHPEKQKINFNGEQMFDVKEAIDTKDDQTNSKLFEYFKEKAFPYLSTKHLGVFPDHVLDMFINGYRLSLTNHGPTPVKEGSKDPRGGIFDAVFTRGDQSKLLTSRHDFKEKTLKEISDLIKQELTEGKALALSHTYANVRINHVINLWGADFDSNGNLEAIYVTDSDSNASIGMKKYFVGVNSAGKVAISAKEIEDDNIGAQVLGLFTLSTGQDIWNQTNDKTHTCPPCPAPEAAGAPSVFLFPPKPKDTLMISRTPEVTCVVVDVSHEDPEVKFNWYVDGVEVHNAKTKPREEQQNSTYRVVSVLTVLHQDWLNGKEYKCKVSNKALKAPIEKTISKAKGQPREPQVYTLPPSRDELTKNQVSLTCLVKGFYPSDIAVEWESNGQPENNYKTTPPVLDSDGSFFLYSKLTVDKSRWQQGNVFSCSVMHEALHNHYTQKSLSLSPG	137 ng/µL	294 ng/µL	89 ng/µL	151 ng/µL
VRT-6 (Fc fusion) VTSVWTKGVTPPANFTQGEDVFHAPYVANQGWYDITKTFNGKDDLLCGAATAGNMLHWWFDQNKDQIERYLKEHPEKQKINFNGEQMFDVKEAIDTKDSQTDSKLFEYFKEKAFPYLSTKHLGVFPDHVLDMFINGYRLSLTNHGPTPVKEGSKDPRGGIFDAVFTRGDQSKLLTSRHDFKEKTLKEISDLIKQELTEGKALGLSHTYANVRINHVINLWGADFDSEGNLKAIYVTDSDSNASIGMKKYFVGVNSAGKVAISAKEIKEDNIGAQVLGLFTLSTGQDIWNQTNDKTHTCPPCPAPEAAGAPSVFLFPPKPKDTLMISRTPEVTCVVVDVSHEDPEVKFNWYVDGVEVHNAKTKPREEQQNSTYRVVSVLTVLHQDWLNGKEYKCKVSNKALKAPIEKTISKAKGQPREPQVYTLPPSRDELTKNQVSLTCLVKGFYPSDIAVEWESNGQPENNYKTTPPVLDSDGSFFLYSKLTVDKSRWQQGNVFSCSVMHEALHNHYTQKSLSLSPG	132 ng/µL	304 ng/µL	78 ng/µL	172 ng/µL
VRT-7 (Fc fusion) VTSVWTKGVTPPTNFTYGEDVLHAPYVANQGWYDITKTFNGKDDLLCGAATAGNMLHWWFDQNKEQIENYLKKHPEKQKINFNGEQMFDVKEAIDTKDSQLDSKLFEYFKEKAFPYLSTKHLGVFPDHVIDMFINGYRLSLTNHGPTPVKRGSKDPRGGIFDAVFTRGDQSKLLTNRHDFKEKTLKEISDLIKQELTEGKALGISHTYANVRINHVINLWGADFDAEGNLEAIYVTDSDSNASIGMKKYFVGVNSNGKVAISAKEIEEDNIGAQVLGLFTLSTGQDIWNQTNDKTHTCPPCPAPEAAGAPSVFLFPPKPKDTLMISRTPEVTCVVVDVSHEDPEVKFNWYVDGVEVHNAKTKPREEQQNSTYRVVSVLTVLHQDWLNGKEYKCKVSNKALKAPIEKTISKAKGQPREPQVYTLPPSRDELTKNQVSLTCLVKGFYPSDIAVEWESNGQPENNYKTTPPVLDSDGSFFLYSKLTVDKSRWQQGNVFSCSVMHEALHNHYTQKSLSLSPG	61 ng/µL	258 ng/µL	178 ng/µL	249 ng/µL
VRT-8 (Fc fusion) VTSVWTKGVTPPADFTQGEDVFHAPYVANQGWYDITKTFNGKDDLLCGAATAGNMLHWWFDQNKEYIEAYLKKHPEKQKIMFGDQELLDVRKAINTKGSQKNSELFNYFRDKAFPNLSARRLGVMPDLVLDMFINGYYLNVTKTQTTDVNRTYQEKDKRGGIFDAVFTRGDQSKLLTSRHDFKEKGLKEISDLIKQELTEGKALGLSHTYANVRINHVINLWGADFDSDGNLKAIYVTDSDSNASIGMKKYFVGVNSAGKVAISAKEIKEDNIGAQVLGLFTLSTGQDIWNQTNDKTHTCPPCPAPEAAGAPSVFLFPPKPKDTLMISRTPEVTCVVVDVSHEDPEVKFNWYVDGVEVHNAKTKPREEQQNSTYRVVSVLTVLHQDWLNGKEYKCKVSNKALKAPIEKTISKAKGQPREPQVYTLPPSRDELTKNQVSLTCLVKGFYPSDIAVEWESNGQPENNYKTTPPVLDSDGSFFLYSKLTVDKSRWQQGNVFSCSVMHEALHNHYTQKSLSLSPG	0 ng/µL	126 ng/µL	652 ng/µL	125 ng/µL
VRT-10 (Fc fusion) TITSVWTKGVTPPTPEDFRYNNEDVLHAPYVANQGWYDITKTFDGKDNLLCGAATAGNMLHWWFDQNKEEIERYLKKHPEKQKIIFNNQELFDVKAAIDTKDSQTNSKLFNYFRDKAFPNLSARQLGVMPDLVLDMFINGYYLNLGKTQSTDVNRPYQDKDKRGGIFDAVFTRGDQTTLLTARHDLKNKGLNEISDLIKQELTEGKALALSHTYANVRINHVINLWGADFDAEGNLIAIYVTDSDANASIGMKKYFVGVNANGKVAISAKKIEGDNIGAQVLGLFTLSTGQDIWQKLSDKTHTCPPCPAPEAAGAPSVFLFPPKPKDTLMISRTPEVTCVVVDVSHEDPEVKFNWYVDGVEVHNAKTKPREEQQNSTYRVVSVLTVLHQDWLNGKEYKCKVSNKALKAPIEKTISKAKGQPREPQVYTLPPSRDELTKNQVSLTCLVKGFYPSDIAVEWESNGQPENNYKTTPPVLDSDGSFFLYSKLTVDKSRWQQGNVFSCSVMHEALHNHYTQKSLSLSPG	56 ng/µL	266 ng/µL	71 ng/µL	169 ng/µL
VRT-11 (Fc fusion) QITSVWTKGVTPPTPEQFRYNNEDVIHAPYLANQGWYDITKTFNGKDNLLCGAATAGNMLHWWFDQNKTEIEAYLSKHPEKQKIIFNNQELFDLKAAIDTKDSQTNSQLFNYFRDKAFPNLSARQLGVMPDLVLDMFINGYYLNVFKTQSTDVNRPYQDKDKRGGIFDAVFTRGDQTTLLTARHDLKNKTLNDISTLIKQELTEGKALALSHTYANVSISHVINLWGADFNAEGNLEAIYVTDSDANASIGMKKYFVGVNAHGKVAISAKKIEGENIGAQVLGLFTLSSGKDIWQKLSDKTHTCPPCPAPEAAGAPSVFLFPPKPKDTLMISRTPEVTCVVVDVSHEDPEVKFNWYVDGVEVHNAKTKPREEQQNSTYRVVSVLTVLHQDWLNGKEYKCKVSNKALKAPIEKTISKAKGQPREPQVYTLPPSRDELTKNQVSLTCLVKGFYPSDIAVEWESNGQPENNYKTTPPVLDSDGSFFLYSKLTVDKSRWQQGNVFSCSVMHEALHNHYTQKSLSLSPG	0 ng/µL	90 ng/µL	829 ng/µL	38 ng/µL
